The source of these data is patent publication US20120135461A1, “PRODUCTION OF GLYCOPROTEINS WITH REDUCED O-GLYCOSYLATION COMPRISING THE USE OF AN ALPHA-1,2-MANNOSIDASE” (priority 2010, published 2012).

“Also recorded” adds a separate entry of the source.

B1: Penicillium citrinum: Penicillium citrinum α-1,2-mannosidase, GenBank BAA08275, SEQ ID NO: 8 (protein, listed as Penicillium citrinum)
chain: HPYGETEAVLRSEPKSNQAKADAVKEAFQHAWNGYMKYAFPHDELTPVSNGHADSRNGWGASAVDALSTAVIMGKADVVNAILEHVADIDFSKTSDTVSLFETTIRYLAGMLSGYDLLQGPAKNLVDNQDLIDGLLDQSRNLADVLKFAFDTPSGVPYNNINITSHGNDGATTNGLAVTGTLVLEWTRLSDLTGDEEYAKLSQKAESYLLKPQPSSSEPFPGLVGSSININDGQFADSRVSWNGGDDSFYEYLIKMYVYDPKRFETYKDRWVLAAESTIKHLKSHPKSRPDLTFLSSYSNRNYDLSSQHLTCFDGGSFLLGGTVLDRQDFIDFGLELVDGCEATYNSTLTKIGPDSWGWDPKKVPSDQKEFYEKAGFYISSGSYVLRPEVIESFYYAHRVTGKEIYRDWVWNAFVAINSTCRTDSGFAAVSDVNKANGGSKYDNQESFLFAEVMKYSYLAHSEDAAWQVQKGGKNTFVYNTEAHPISVARN
B2: Aspergillus saitoi: A. saitoi α-1,2-mannosidase, GenBank BAA08634, SEQ ID NO: 12 (protein, listed as Aspergillus saitoi)
chain: YPHFGSSQPVLHSSSDTTQSRADAIKAAFSHAWDGYLQYAFPHDELHPVSNGYGDSRNGWGASAVDALSTAVIMRNATIVNQILDHVGKIDYSKTNTTVSLFETTIRYLGGMLSGYDLLKGPVSDLVQNSSKIDVLLTQSKNLADVLKFAFDTPSGVPYNNLNITSGGNDGAKTNGLAVTGTLALEWTRLSDLTGDTTYADLSQKAESYLLNPQPKSAEPFPGLVGSNINISNGQFTDAQVSWNGGDDSYYEYLIKMYVYDPKRFGLYKDRWVAAAQSTMQHLASHPSSRPDLTFLASYNNGTLGLSSQHLTCFDGGSFLLGGTVLNRTDFINFGLDLVSGCHDTYNSTLTGIGPESFSWDTSDIPSSQQSLYEKAGFYITSGAYILRPEVIESFYYAWRVTGQETYRDWIWSAFSAVNDYCRTSSGFSGLTDVNAANGGSRYDNQESFLFAEVMKYSYMAFAEDAAWQVQPGSGNQFVFNTEAHPVRVSST
B3: Aspergillus oryzae: A. oryzae α-1,2-mannosidase, GenBank BAE57653, SEQ ID NO: 14 (protein, listed as Aspergillus oryzae)
chain: YPQFKFEQRVARSNSSESRANAVKEAFVHAWDGYMQYAYPHDELHPISNGVGDSRNGWGASAVDALSTAVIMGNETIVNQILDHIATIDYSKTDDQVSLFETTIRYLGGMLSGYDLLKGPASNLVKDQAKVKTLLDQSQNLADVLKFAFDTPSGIPYNNINITSHGNDGATTNGLAVTGTLVLEWTRLSDLTGDTEYAQLSQKAEDYLLNPSPKSAEPFEGLVGSHINISNGAFADGQVSWNGGDDSFYEYLIKMYVYDPKRFSTYGDRWVKAAESSIKHLASHPEKRPDLTFLASYNDGQYGLSSQHLTCFDGGSFLLGGTVLDRDDFIQFGLDLVKGCHETYNQTLTGIGPESFGWDPKNVPSDQKELYERAGFYISSGAYILRPEVIESFYYAWRITGQEIYREWVWNAFVNINKYCRTDSGFAGLTNVNAANGGGRYDNQESFLFAEVLKYVYLTFAPDNEWQVQRGKGNKFVYNTEAHPVRVAA
B4: Chaetomiun globosum: C. globosum α-1,2-mannosidase, GenBank XP_001227052, SEQ ID NO: 16 (protein, listed as Chaetomium globosum)
chain: LPRLEDGGRPGAGREDSFWSKVPLHYPPDSIRPLPTGLPVQYPPIQTTTFPAEEDQAARGRRVQRQKAVRDVFAKCWASYRKLAWGADELTPVSGGRKDPFGGWSATLVDSLDTLWIMDMKTEFDEAVAAADGINFTHTAVDRVNVFETNIRYLGGFLAAFDLSGDKRLLGKATEVGDMLYKAFDTPSHMPITRWDMRAAIKGAKQVASEGLIAEVGTLSMEFTRLSMLTGDPKWFDLAQRITDDMAAQQDSTAVPGLWPLKVNGQKRIFNSGPDFTLGAMADSAYEYLPKMSAMMGGQLPMYQTMYEKAMDAATKHNLFRPMTPTNEDILIAGDVHARENGMEFEARGQHLTCFLGGLMALGGRLYGREKDVIAGRKLTDGCVWTYKAFPQGIMPESFVTVSCPAGDACEWDEGVWKKEVLRKANKDTDGPESNAEAEVIIKKQRLPQGFTAVFDRAYLLRPEAIESVFVLYRVTGKVELLEAAWDMFTAIDKATSTDLANSAIRDVTSTDKPEAKDSMESFWMAETLKYFYLIFSDPELINLNEYVLNTEAHPFRRLLPSP

The subject of one experiment is O-glycans of α-Her2. Description: O-mannose chain length analysis by HPAEC-PAD of O-glycans released from α-Her2 from fermented MNS1 strains. In kind it is cell-based, Pichia pastoris.
Take B1: the “O-Man1 (%)” value is 83% and the “effect on percentage of O-Man1 / O-mannose chain length relative to no MNS1 control” value was “reduced O-mannose chain length, but to a lesser extent”.
Consider B2, for which the “O-Man1 (%)” value is listed as 86% and the “effect on percentage of O-Man1 / O-mannose chain length relative to no MNS1 control” value was “reduced O-mannose chain length, but to a lesser extent”.
On to B3, for which the “O-Man1 (%)” value was found to be 89% and the “effect on percentage of O-Man1 / O-mannose chain length relative to no MNS1 control” value is on record as “reduced O-mannose chain length, but to a lesser extent”.
For the molecule B4, the “O-Man1 (%)” value amounted to 89% and the “effect on percentage of O-Man1 / O-mannose chain length relative to no MNS1 control” value is “reduced O-mannose chain length, but to a lesser extent”.

The next experiment concerns O-glycosylated α-Her2 heavy chain (Hc).
Test: not given
In kind it is cell-based, Pichia pastoris.
Take B2: the “α-Her2 Hc migration on Western blot relative to non-transformed control” value is reported as “faster relative to the non-transformed control but not as fast”.
Same read-out and setting: as for B3, the entry is “migration is increased; also recorded: faster relative to the non-transformed control but not as fast”; as for B4, “faster relative to the non-transformed control but not as fast”.
